Assay results from patent US20090305309A1.

Target: Src substrate peptide … derived from p130cas, tyrosine-phosphorylated by Src
Assay: cell-based or functional assay

c-Src SH2 domain of the Src reporter was tested. Which cyan-to-yellow emission ratio of the purified Src reporter after in vitro phosphorylation by Src did it give?
Its cyan-to-yellow emission ratio of the purified Src reporter after in vitro phosphorylation by Src is 25%.

What about the emission ratio change of the Src reporter in HeLa cells on EGF stimulation of the same substance?
The emission ratio change of the Src reporter in HeLa cells on EGF stimulation was 25 to 35%.

And the emission ratio change of the monomeric (A206K CFP/YFP) Src reporter in response to Src kinase in vitro?
The emission ratio change of the monomeric (A206K CFP/YFP) Src reporter in response to Src kinase in vitro was 43%.
